# Where a chain is given by its changes, count along the chain named.
# B1: chimeric anti-CD20 monoclonal antibody c1K1791 (antibody, V domains shown)
# VH: QIQLVQSGPELKKPGETVKISCKASGYTFTNFGVNWVKQAPGKGLKWMGWINTYTGEPSYADDFKGRFAFSLEASANTAYLQINNLKNDDMSTYFCTRRTNYYGTSYYYAMDYWGQGTSVTVSS
# VL: STVMTQTPKFLLVSAGDRVTITCKASQSVSNDVAWYQQKPGQSPKVLIYFASNRYTGVPDRFTGSGYGTDFTFTINTVQAEDLAVYFCQQDYSSPLTFGAGTKLELK
# notes: Murine variable regions fused to human immunoglobulin H chain and L chain (kappa) constant regions of vector pNOW-Ab
# B2: chimeric anti-CD20 monoclonal antibody c1K1228 (antibody, V domains shown)
# VH: QVQLQQPGAELVKPGASVKVSCKASGFTFTSYNLHWVKQTPGQGLVWIGAIYPGNGDTSYNQKFRGKATLTADISSSTAYMQLSSLTSEDSAVYYCARYYYGYDAMDYWGQGTSVTVSS
# VL: EIILTQSPTTMAASPGEKITITCSASSSISSYYLRWYQQKPGFSPKVLIYRTSNLASGVPARFSGSGSGTSYSLTIGTMEAEDVATYYCQQGNTVPLTFGSGTKLEIK
# notes: as for B1
# B3: chimeric anti-CD20 monoclonal antibody c1K1736 (antibody, V domains shown)
# VH: QVQLQQPGAELVKPGASVKMSCKASGYTFTTYNLHWVKQTPGQGLEWIGGIYPGNGDTSYNQKFKVKATLTADKSSNTAYMQLSSLTSEDSAVYYCARWIYYGNYEGTLDYWGQGTSVTVSS
# VL: QIVLSQSPAILSSSPGEKVTMTCRASSSVSYMLWYQQKPGSSPEPWIYATSNLASGVPARFSGGGSGTSYSLTISRVEAEDAATYYCQQWTFNPPTFGGGTKLEIK
# notes: as for B1
# B4: Rituximab (c2B8) (antibody, V domains shown)
# VH: QVQLQQPGAELVKPGASVKMSCKASGYTFTSYNMHWVKQTPGRGLEWIGAIYPGNGDTSYNQKFKGKATLTADKSSSTAYMQLSSLTSEDSAVYYCARSTYYGGDWYFNVWGAGTTVTVSA
# VL: B3 VL with S13A, M32I, L33H, Y35F, E44K, A59V, G64S, F92S
# B5: chimeric anti-CD20 monoclonal antibody c1K0924 (antibody, V domains shown)
# VH: QVQLQQPGAELVKPGASVKMSCKASGYTFTSYNIHWVKQTPGQGLEWIGAIYPGNGDTSYNQKFKGKATLTSDKSSSTAYMQLSSLTSEDSAVYYCARMSTMITGFDYWGQGTTLTVSS
# VL: B3 VL with S13A, L33H, K38R, E44K, G64S, S71Y, L72F, T91N, F92S, F97H
# notes: as for B1
# B6: chimeric anti-CD20 monoclonal antibody c1K1402 (antibody, V domains shown)
# VH: QVQLQQPGAELVKPGASVKMSCKASGFTFTSYNMHWVKQTPGQGLEWIGGIYPGNGDTSYNQKFKGKATLTADKSSSTAYMQLSSLTSEDSAVYYCARFYYYGSMGAMDYWGQGTSVTVSS
# VL: B3 VL with S13A, L33H, E44K, G64S, S75T, G99A, I105L
# notes: as for B1
# B7: chimeric anti-CD20 monoclonal antibody c1K1712 (antibody, V domains shown)
# VH: QVQLQQPGAELVKPGASVKMSCKASGFTFTSYNLHWVKQTPGQGLEWIGAIYPGSGDTSYNQQFKGKATLTADKSSNTAYMQLNSLTSEDSAVYCCARSAMISTGNWYFDYWGQGTTLTVSS
# VL: B3 VL with S13A, L33D, E44K, G64S, A82T, G99S
# notes: as for B1
# B8: chimeric anti-CD20 monoclonal antibody c1K1782 (antibody, V domains shown)
# VH: QVQLQQSGAELAKPGASVKMSCKASGYTFTSYWMHWVKQRPGQGLEWIGYITPSTGYTDYNKKFKDKATLTADRSSSTAYMHLSSLTSEDSAVYYCARSGPYFDVWGAGTTVTVSS
# VL: DILLTQSPAILFVSPGERVSLSCRASQNIGTSIHWYQQRTNGSPRLLIKYASESFSGIPSRFSGSGSGTDFTLSINSVESEDIADYYCQQSNSWPFTFGSGTKLEIK
# notes: as for B1
# B9: chimeric anti-CD20 monoclonal antibody c1K1422 (antibody, V domains shown)
# VH: QVQLQQPGAELVKPGASVKMSCRASGYTFTNYNMHWIKQTPGQGLEWIGAIYPGSGDTSYNRKFKGKATLTADTSSSTAYMQFSSLTSADSAVYYCARFTYYYGGTYGAMDYWGQGTSVTVSL
# VL: QIVLTQSPPIMSASLGEEITLTCSASSRVSYMLWYQQKSGTSPKLLIYSTSNLASGVPSRFSGSGSGTFYSLTISSVEAEDAADYYCHQWTSNPCTFGGGTKLEIK
# notes: as for B1
# B10: murine anti-CD20 monoclonal antibody 1K1228 (antibody, V domains shown)
# VH: B2 VH
# VL: B2 VL
# notes: Mouse monoclonal antibody from a hybridoma, purified on protein G
# B11: murine anti-CD20 monoclonal antibody 1K1402 (antibody, V domains shown)
# VH: B6 VH
# VL: B3 VL with S13A, L33H, E44K, G64S, S75T, G99A, I105L
# notes: Mouse monoclonal antibody from a hybridoma
# Target: T1, human CD20 antigen (human, UniProt P11836 1-297)
# T1 construct: whole, on cells; also called CD20/CHO cells; CD20 on Raji cells
# T1 sequence (looked up): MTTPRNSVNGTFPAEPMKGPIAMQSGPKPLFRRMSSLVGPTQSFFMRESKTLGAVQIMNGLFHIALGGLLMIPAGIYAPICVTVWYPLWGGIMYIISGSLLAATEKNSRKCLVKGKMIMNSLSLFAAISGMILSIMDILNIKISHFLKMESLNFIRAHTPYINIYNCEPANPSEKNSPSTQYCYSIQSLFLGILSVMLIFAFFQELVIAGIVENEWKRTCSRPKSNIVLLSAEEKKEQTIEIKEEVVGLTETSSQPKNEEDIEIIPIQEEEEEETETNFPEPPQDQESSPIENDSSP
# Assay: CD20/CHO cell-ELISA, antibody at 1 ng/ml
# Text: (§1) The prepared 8 kinds of chimeric anti-CD20 monoclonal antibodies were examined for reactivity to the human CD20 antigen by the CD20/CHO cell-ELISA. Rituximab (c2B8) was used as a positive control. The values measured in the cell-ELISA (A492) reflect intensity of the binding property.
row,Binder,A492
1,B1,0.108 A492
2,B2,0.12 A492
3,B3,0.122 A492
4,B4,0.088 A492
5,B5,0.094 A492
6,B6,0.116 A492
7,B7,0.145 A492
8,B8,0.074 A492
9,B9,0.077 A492

# Target: T1, human CD20 antigen
# Assay: CD20/CHO cell-ELISA, antibody at 320 ng/ml
# Text: (§2) Several murine anti-CD20 monoclonal antibodies and 2B8 were reacted by using 96-well plates to which the SB cells, Raji cells, CD20/CHO cells and CD20 CHO parent cell line were adhered.
row,Binder,A492
1,B10,2.7 A492
2,B11,1.57 A492

# Target: T1, human CD20 antigen
# Assay: CD20/CHO cell-ELISA, antibody at 1000 ng/ml
# Text: as §2
row,Binder,A492
1,B10,3.06 A492
2,B11,1.88 A492

# Target: T1, human CD20 antigen
# Assay: CD20/CHO cell-ELISA, antibody at 10 ng/ml
# Text: as §2
row,Binder,A492
1,B10,0.572 A492
2,B11,0.389 A492

# Target: T1, human CD20 antigen
# Assay: CD20/CHO cell-ELISA, antibody at 3 ng/ml
# Text: as §1
row,Binder,A492
1,B1,0.276 A492
2,B2,0.289 A492
3,B3,0.32 A492
4,B4,0.226 A492
5,B5,0.186 A492
6,B6,0.349 A492
7,B7,0.359 A492
8,B8,0.169 A492
9,B9,0.151 A492

# Target: T1, human CD20 antigen
# Assay: Raji cell-ELISA, antibody at 10 ng/ml
# Text: as §2
row,Binder,A492
1,B10,0.148 A492
2,B11,0.061 A492

# Target: T1, human CD20 antigen
# Assay: SB cell-ELISA, antibody at 1000 ng/ml
# Text: as §2
row,Binder,A492
1,B10,1.26 A492
2,B11,0.763 A492

# Target: T1, human CD20 antigen
# Assay: SB cell-ELISA, antibody at 10 ng/ml
# Text: as §2
row,Binder,A492
1,B10,0.082 A492
2,B11,0.066 A492

# Target: T1, human CD20 antigen
# Assay: SB cell-ELISA, antibody at 320 ng/ml
# Text: as §2
row,Binder,A492
1,B10,0.931 A492
2,B11,0.4 A492

# Target: T1, human CD20 antigen
# Assay: CD20/CHO cell-ELISA, antibody at 3 ng/ml
# Remark: another data set of the same source
# Text: as §2
row,Binder,A492
1,B10,0.265 A492
2,B11,0.174 A492

# Target: T1, human CD20 antigen
# Assay: SB cell-ELISA, antibody at 32 ng/ml
# Text: as §2
row,Binder,A492
1,B10,0.192 A492
2,B11,0.095 A492

# Target: T1, human CD20 antigen
# Assay: CD20/CHO cell-ELISA, antibody at 32 ng/ml
# Text: as §2
row,Binder,A492
1,B10,1.27 A492
2,B11,0.824 A492

# Target: T1, human CD20 antigen
# Assay: SB cell-ELISA, antibody at 100 ng/ml
# Text: as §2
row,Binder,A492
1,B10,0.452 A492
2,B11,0.152 A492

# Target: T1, human CD20 antigen
# Assay: Raji cell-ELISA, antibody at 32 ng/ml
# Text: as §2
row,Binder,A492
1,B10,0.326 A492
2,B11,0.102 A492

# Target: T1, human CD20 antigen
# Assay: CD20/CHO cell-ELISA, antibody at 100 ng/ml
# Text: as §1
row,Binder,A492
1,B1,2.23 A492
2,B2,2.23 A492
3,B3,2.43 A492
4,B4,2.15 A492
5,B5,1.42 A492
6,B6,2.45 A492
7,B7,2.29 A492
8,B8,2.1 A492
9,B9,1.92 A492

# Target: T1, human CD20 antigen
# Assay: Raji cell-ELISA, antibody at 320 ng/ml
# Text: as §2
row,Binder,A492
1,B10,1.17 A492
2,B11,0.525 A492

# Target: T1, human CD20 antigen
# Assay: CD20/CHO cell-ELISA, antibody at 10 ng/ml
# Remark: another data set of the same source
# Text: as §1
row,Binder,A492
1,B1,0.745 A492
2,B2,0.701 A492
3,B3,0.748 A492
4,B4,0.536 A492
5,B5,0.391 A492
6,B6,0.737 A492
7,B7,0.793 A492
8,B8,0.505 A492
9,B9,0.357 A492

# Target: T1, human CD20 antigen
# Assay: CD20/CHO cell-ELISA, antibody at 100 ng/ml
# Remark: another data set of the same source
# Text: as §2
row,Binder,A492
1,B10,2.09 A492
2,B11,1.49 A492

# Target: T1, human CD20 antigen
# Assay: Raji cell-ELISA, antibody at 1000 ng/ml
# Text: as §2
row,Binder,A492
1,B10,1.68 A492
2,B11,1.23 A492

# Target: T1, human CD20 antigen
# Assay: CD20/CHO cell-ELISA, antibody at 32 ng/ml
# Remark: another data set of the same source
# Text: as §1
row,Binder,A492
1,B1,1.46 A492
2,B2,1.58 A492
3,B3,1.55 A492
4,B4,1.14 A492
5,B5,0.724 A492
6,B6,1.62 A492
7,B7,1.68 A492
8,B8,1.02 A492
9,B9,0.912 A492

# Target: T1, human CD20 antigen
# Assay: Raji cell-ELISA, antibody at 100 ng/ml
# Text: as §2
row,Binder,A492
1,B10,0.678 A492
2,B11,0.214 A492

# From patent publication US20090197330A1 (BIOMEDICS, published 2009)
